# pKd: −log10 of the molar value.
# Molecular target: TcpK (Clostridium perfringens (plasmid pCW3)) (UniProt Q1PLI2)
# Assay: SPR
# Details: SPR: 10 mM HEPES pH 7.4, 200 mM NaCl, 3 mM EDTA, 0.05% Tween 20, 20 C
Sequence,pKd,binding signal [% Rmax]
AAGGAACTTTACAGGGAACTTTA (double strand) [oriTmin23 (SPR)],6.44,
AAGGAACTTTACAGGGAACTT (double strand) [R2L10],,55
AAGGAACTTTACAGGGAACTTTA (double strand) [R2L9],,100
AAGGAACTTTACAAGGAACTTTA (double strand) [linker CAA],,25
AAGGAACTTTACAGGGAACTTTAAAAATTT (double strand) [oriT#1 (SPR)],6.28,
AAGGAACTTTACAGGGAACTTTAAAAATTTAAATTGATA (double strand) [R2L1],,100
ACAGGGAACTTTAAAAATTTAAATTGATAT (double strand) [oriT#2 (SPR)],5.59,

# Reference: publication PMC6137059
